“Also recorded” adds a separate entry of the source.
Experiments:
[1] = tested on: HER2+ tumors (MDA-MB-435); experiment: In vivo tumor toxicity (tumor growth); set-up: species or system mouse; details: 0.004 mg/kg with respect to Dox, daily tail vein injections for 7 days
[2] = HerDox stability under storage conditions; assay type: physicochemical; details: up to 12 days
Protocol: FIG. 6 (A) illustrates conjugate stability under different storage conditions, or in serum. HerDox was incubated up to 12 days at 4° C., Room Temperature, or 37° C. Samples were filtered through ultrafiltration spin columns every other day.
The inventors tested the stability of HerDox over 12 days under different storage temperatures: 40° C., room temperature, or 37° C. […] The inventors also examined HerDox stability in serum-containing media at 37° C. […] Dox retention in the conjugate was also assessed by eluting the conjugate from the beads at each time point.

MDA-MB-435 cells = experiment: Trastuzumab pre-treatment before HerDox, cell survival; assay type: cell-based, human; details: MDA-MB-435, 24 h pre-treatment
Text: N=3. […] N=3. […] N=3. […] N=3. […] N=3. […] N=3.

HER2+ tumors = experiment: HerDox and Dox biodistribution (Dox fluorescence imaging)
Text: FIG. 11 (A) depicts imaging of live mice after IV delivery of HerDox. Tumors are indicated by arrows.

[3] = Off-target toxicity in treated mice (weight, heart, liver)
Protocol: Relative cell survival (as % of untreated cells) on day 3 of treatment. (+Her), pre-incubation of MDA-MB-435 cells with receptor-blocking ligand (recombinant heregulin) before receiving HerDox. N=3. […] Tissues were harvested from independently injected mice euthanized at indicated time points after injection and fluorescence intensity/tissue acquired using a multimode imager. […] Bar, about 4 μm. […] Day 0=3 days before tail vein injections (mice received daily injections for 7 days). […] Day 0=3 days before tail vein injections (mice received daily injections for 7 days). […] Micrographs (20× magnification) in (E) also show representative H&E stained specimens of myocardia and immunofluorescent specimens of livers from treated mice. Green fluorescence in nuclei indicates apoptosis (positive TUNEL stain).

SKBR3 parental cells = experiment: Tumor cell killing in culture; assay type: cell-based, human
Protocol: FIG. 21 depicts graph that show the results of the administration of HerDox on various cells. […] N=3. *=p<0.05 compared to parental. […] N=3.
N=3. *, p<0.05 compared to parental. […] N=3. […] Parental and resistant cell lines were treated with HerDox−/+HER3 blocking peptide (ErbB3 human; Prospec), and tested for cell survival 48 hours later. […] Treatments were compared to mock (saline)-treatment. […] N=3. *, p<0.05 compared to parental. […] N=3.
Parental cell lines were pre-treated with 0.5 mg/mL Tz for 24 hours before testing these cells for surface HER3 levels. […] Parental cell lines were pre-treated with 0.5 mg/mL Tz for 24 hours before testing these cells for HerPBK10 binding. […] SKBR3 Parental cells were treated with Tz at indicated concentrations (see upper X-axes) 4 and 24 hours before HerDox treatment and assayed for survival at 48-72 h after treatment. N=3. […] SK-474 Parental cells were treated with Tz at indicated concentrations (see upper X-axes) 4 and 24 hours before HerDox treatment and assayed for survival at 48-72 h after treatment. N=3. […] MDA-MB-435 non-resistant cells were treated with Tz at indicated concentrations (see upper X-axes) 4 and 24 hours before HerDox treatment and assayed for survival at 48-72 h after treatment. […] N=3. […] Tz-resistant cells were treated with Tz at indicated concentrations (see upper X-axes) 4 and 24 hours before HerDox treatment and assayed for survival at 48-72 h after treatment. N=3.
Each therapeutic was administered at concentration ranges previously established for eliciting therapeutic efficacy.
Previous studies have shown that HER3 is transcriptionally and translationally elevated as soon as 4 hours after HER2 inhibition, either by lapatinib or gene silencing. […]

[4] = single tail vein injection, live imaging
[5] = tissues harvested ~3 h after injection

B1: HerDox: non-covalent complex of HerPBK10, double-stranded oligonucleotide and intercalated Dox (Unit A+Unit B+Unit C) (conjugate)
chain: SHLVKCAEKEKTFCVNGGECFMVKDLSNPSRYLCKCQPGFTGARCTENVPMKVQNQEKAEELYQKMRRAAMYEEGPPPSYESVVSAAPVAAALGSPFDAPLDPPFVPPRYLRPTGGRNSIRYSELAPLFDTTRVYLVDNKSTDVASLNYQNDHSNFLTTVIQNNDYSPGEASTQTINLDDRSHWGGDLKTILHTNMPNVNEFMFTNKFKARVMVSRLPTKDNQVELKYEWVEFTLPEGNYSETMTIDLMNNAIVEHYLKVGRQNGVLESDIGVKFDTRNFRLGFDPVTGLVMPGVYTNEAFHPDIILLPGCGVDFTHSRLSNLLGIRKRQPFQEGFRITYDDLEGGNIPALLDVDAYQASLKDDTEQGGGGAGGSNSSGSGAEENSNAAAAAMQPVEDMNDHAIRGDTFATRAEEKRAEAEAAAEAAAPAAQPEVEKPQKKPVIKPLTEDSKKRSYNLISNDSTFTQYRSWYLAYNYGDPQTGIRSWTLLCTPDVTCGSEQVYWSLPDMMQDPVTFRSTRQISNFPVVGAELLPVHSKSFYNDQAVYSQLIRQFTSLTHVFNRFPENQILARPPAPTITTVSENVPALTDHGTLPLRNSIGGVQRVTITDARRRTCPYVYKALGIVSPRVLSSRTFKKKKKKKKKK
modifications: left off: small tags and cut ends
effect on tumor growth [1]: essentially prevented tumor growth | product remaining intact ([2]; 4° C.): 100% | effect of storage on drug incorporation ([2]; room temperature and 37° C.): appeared to enhance the incorporation of the drug | enhancement of HerDox toxicity by trastuzumab pre-treatment (MDA-MB-435 cells): modest enhancement in toxicity | time fluorescence remained detectable in the tumors (HER2+ tumors; [4]): up to 100 min | time of fluorescence accumulation at the tumors (HER2+ tumors; [4]): ≤ 20 min | fluorescence in kidneys (HER2+ tumors; [5]): barely detectable | fluorescence in liver (HER2+ tumors; [5]): substantially lower levels of fluorescence | fluorescence in other tissues (heart, spleen, lungs, skeletal muscle) (HER2+ tumors; [5]): did not exhibit any fluorescence | fluorescence in tumors (HER2+ tumors; [5]): intense fluorescence in the tumors | cardiac function (echocardiograms) ([3]; 25 days following injections): no effect on these measurements | liver and heart toxicity ([3]; systemic delivery in vivo): avoiding liver and heart toxicity | response of parental SKBR3 cells (SKBR3 parental cells; 48-72 h after treatment): improved cell killing compared to trastuzumab; also recorded: improved cell killing compared to Tz | cell death (SKBR3 parental cells; parental SKBR3, 48-72 h after treatment): 50% | further augmentation of HerDox toxicity by trastuzumab pre-treatment (SKBR3 parental cells; parental SKBR3, Tz 4 or 24 hours before HerDox, highest doses tested): 40-50%
